Assay results published in publication PMC8901805.

Molecular target: FITC-BIM SAHBA2
Assay: fluorescence polarisation; direct binding: FITC-BIM SAHBA2 (50 nM) with serial dilutions of full-length BAX, read at 20 min

Substance: Human, recombinant and tagless BAX (from UniProt Q07812 1-192) (natural protein)
- EC75: 500 nM
